In the supplement of paper PMC7125110:
± gives the standard error. For part of these data: Fewer inactive variants are shown than the library holds.

B1: glmS ribozyme (parent)
chain: AUAAAAGCGCCAGAACUACAGAAAUGUAGUUGACGAGGAGGAGGUUUAUCGAAUUUUCGGCGGAUGCCUCCAAA

Assays:
Settings in all cases: with glucosamine-6-phosphate
glucosamine-6-phosphate [1] = variants of: B1; experiment: kcat; higher = faster cleavage; RNA array
In short: (§1)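 Tiles bearing barcoded ribozyme variants, transcribed in situ by E. coli RNA polymerase on sequenced MiSeq chips, were imaged over ~14 h at 37 °C using a hybridised Cy3 probe. Glucosamine-6-phosphate was supplied at 40 μM to 10 mM in HEPES/KCl/Mg(OAc)2 buffer. kobs came from one- or two-exponential decay fits to normalised per-tile medians, and weighted Michaelis–Menten fits then provided kcat and KM.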

glucosamine-6-phosphate [2] = variants of: B1; experiment: self-cleavage kobs at 40 uM GlcN6P; higher = faster cleavage; RNA array
In short: as §1

glucosamine-6-phosphate [3] = variants of: B1; experiment: self-cleavage kobs at 640 uM GlcN6P; higher = faster cleavage; RNA array
In short: as §1

glucosamine-6-phosphate [4] = variants of: B1; experiment: self-cleavage kobs at 2500 uM GlcN6P; higher = faster cleavage; RNA array
In short: as §1

glucosamine-6-phosphate [5] = variants of: B1; experiment: self-cleavage kobs at 10000 uM GlcN6P; higher = faster cleavage; RNA array
In short: as §1

glucosamine-6-phosphate [6] = variants of: B1; experiment: KM; higher = weaker cofactor use; RNA array
In short: as §1

glucosamine-6-phosphate [7] = variants of: B1; experiment: self-cleavage kobs at 160 uM GlcN6P; higher = faster cleavage; RNA array
In short: as §1

Variant	kcat (glucosamine-6-phosphate [1])	self-cleavage kobs at 40 uM GlcN6P (glucosamine-6-phosphate [2])	self-cleavage kobs at 640 uM GlcN6P (glucosamine-6-phosphate [3])	self-cleavage kobs at 2500 uM GlcN6P (glucosamine-6-phosphate [4])	self-cleavage kobs at 10000 uM GlcN6P (glucosamine-6-phosphate [5])	KM (glucosamine-6-phosphate [6])	self-cleavage kobs at 160 uM GlcN6P (glucosamine-6-phosphate [7])
U55C C67G	< 1e-05 s⁻¹	< 1e-05 s⁻¹					
U55C C67A	0.000193 ± 6.1e-05 s⁻¹		0.000133 ± 2.3e-05 s⁻¹	0.000137 ± 2.4e-05 s⁻¹	0.00029 ± 5.7e-05 s⁻¹		
U55C C67U	0.000234 ± 1.4e-05 s⁻¹		0.000134 ± 2.5e-05 s⁻¹	0.000173 ± 4.2e-05 s⁻¹	0.000231 ± 3e-05 s⁻¹	499 ± 120 µM	
U56G A64U	9.52e-05 ± 2.5e-05 s⁻¹			3.01e-05 ± 1.5e-05 s⁻¹	6.57e-05 ± 1.9e-05 s⁻¹		< 1e-05 s⁻¹
U57C C71G	1.18e-05 ± 1.2e-06 s⁻¹	< 1e-05 s⁻¹					
U57C C71U	0.000136 ± 1.9e-05 s⁻¹	< 1e-05 s⁻¹	9.57e-05 ± 1.9e-05 s⁻¹	8.71e-05 ± 2.6e-05 s⁻¹	0.000139 ± 1.6e-05 s⁻¹		
U54C G59U	4.57e-05 ± 2.2e-05 s⁻¹				2.45e-05 ± 1.2e-05 s⁻¹		
U55A U57A	0.000112 ± 3.7e-05 s⁻¹		7.83e-05 ± 1.8e-05 s⁻¹	8.45e-05 ± 2.7e-05 s⁻¹			
A53G C67U	0.0134 ± 0.0047 s⁻¹	0.000512 ± 6.3e-05 s⁻¹	0.00617 ± 0.0011 s⁻¹	0.0175 ± 0.0045 s⁻¹	0.0111 ± 0.0015 s⁻¹	1400 ± 680 µM	0.000969 ± 0.00016 s⁻¹
U56C C58G	2.76e-05 ± 8.3e-06 s⁻¹						
U56C C58A	0.000232 ± 6.7e-05 s⁻¹		3.8e-05 ± 1.6e-05 s⁻¹	5.91e-05 ± 1.6e-05 s⁻¹	0.000146 ± 1.9e-05 s⁻¹		
U56C C58U	6.39e-05 ± 2.4e-06 s⁻¹			2.41e-05 ± 1.1e-05 s⁻¹	4.48e-05 ± 8.5e-06 s⁻¹	4240 ± 440 µM	
U56G G59U	2.54e-05 ± 5.7e-06 s⁻¹			2.9e-05 ± 1.4e-05 s⁻¹	2.16e-05 ± 1e-05 s⁻¹		< 1e-05 s⁻¹
A53C U65G	0.00136 ± 0.0002 s⁻¹		0.000197 ± 2.5e-05 s⁻¹	0.000555 ± 6.7e-05 s⁻¹	0.00104 ± 0.0001 s⁻¹	3420 ± 810 µM	8.25e-05 ± 1.4e-05 s⁻¹
A53C U69A	0.000135 ± 1.3e-05 s⁻¹		6.52e-05 ± 1.2e-05 s⁻¹	0.000124 ± 2.1e-05 s⁻¹	0.000118 ± 1.8e-05 s⁻¹	683 ± 200 µM	
U55A C58G	0.00041 ± 0.00019 s⁻¹		2.55e-05 ± 1.3e-05 s⁻¹	4.69e-05 ± 1.5e-05 s⁻¹	0.000153 ± 2.5e-05 s⁻¹		
U57G C68A C70U	3.59e-05 ± 1.7e-05 s⁻¹		5.38e-05 ± 1.8e-05 s⁻¹				
U56C U65G	0.000503 ± 9.7e-05 s⁻¹			0.000206 ± 7.7e-05 s⁻¹	0.00041 ± 8.6e-05 s⁻¹		

Variant	kcat (glucosamine-6-phosphate [1])	self-cleavage kobs at 40 uM GlcN6P (glucosamine-6-phosphate [2])	self-cleavage kobs at 640 uM GlcN6P (glucosamine-6-phosphate [3])	self-cleavage kobs at 2500 uM GlcN6P (glucosamine-6-phosphate [4])	self-cleavage kobs at 10000 uM GlcN6P (glucosamine-6-phosphate [5])	KM (glucosamine-6-phosphate [6])	self-cleavage kobs at 160 uM GlcN6P (glucosamine-6-phosphate [7])
U56C U65A	0.0012 ± 0.00021 s⁻¹		0.000115 ± 2.5e-05 s⁻¹	0.000269 ± 5.1e-05 s⁻¹	0.000702 ± 8.3e-05 s⁻¹	7470 ± 2000 µM	2.29e-05 ± 1.1e-05 s⁻¹
U56C C71U	0.000531 ± 7.9e-05 s⁻¹		0.000219 ± 3.6e-05 s⁻¹	0.000287 ± 5.6e-05 s⁻¹	0.000477 ± 4.5e-05 s⁻¹	1380 ± 590 µM	
U57C C58G	3.57e-05 ± 4.2e-06 s⁻¹				3.19e-05 ± 1e-05 s⁻¹		
U55G G66C	0.000625 ± 0.00013 s⁻¹		0.000216 ± 4.5e-05 s⁻¹	0.000325 ± 7e-05 s⁻¹	0.000624 ± 0.0001 s⁻¹		
C58A A64G	0.000405 ± 6.2e-05 s⁻¹		0.0001 ± 1.5e-05 s⁻¹	0.000214 ± 2.8e-05 s⁻¹	0.000399 ± 8.1e-05 s⁻¹	1920 ± 510 µM	3.91e-05 ± 1.1e-05 s⁻¹
A53G U65A C67A	0.000109 ± 1.9e-05 s⁻¹		0.000153 ± 3.7e-05 s⁻¹	0.000112 ± 2.9e-05 s⁻¹	9.28e-05 ± 2.4e-05 s⁻¹		8.41e-05 ± 2.3e-05 s⁻¹
U54G G60C C68G	3.07e-05 ± 1.4e-05 s⁻¹						
A53G	0.0676 ± 0.0095 s⁻¹	0.00137 ± 2.6e-05 s⁻¹	0.015 ± 0.00053 s⁻¹	0.0341 ± 0.0017 s⁻¹	0.0639 ± 0.0029 s⁻¹	2010 ± 330 µM	0.00441 ± 0.0003 s⁻¹
A53U	0.048 ± 0.0058 s⁻¹	0.000782 ± 1.4e-05 s⁻¹	0.0093 ± 0.00029 s⁻¹	0.0221 ± 0.00097 s⁻¹	0.042 ± 0.0018 s⁻¹	2500 ± 350 µM	0.00253 ± 0.00016 s⁻¹
A53C	0.0162 ± 0.0036 s⁻¹	0.000261 ± 5.6e-06 s⁻¹	0.00273 ± 6.9e-05 s⁻¹	0.00834 ± 0.0003 s⁻¹	0.0126 ± 0.00041 s⁻¹	2870 ± 790 µM	0.000713 ± 2.4e-05 s⁻¹
U57A C61A	1.53e-05 ± 5.7e-06 s⁻¹						
U54C C58A	0.000427 ± 0.0001 s⁻¹		6.93e-05 ± 1.1e-05 s⁻¹	0.000153 ± 2.3e-05 s⁻¹	0.000361 ± 7.7e-05 s⁻¹	3720 ± 1300 µM	
U55A U65G	0.00556 ± 0.0024 s⁻¹	7.69e-05 ± 2.5e-05 s⁻¹	0.000517 ± 0.0001 s⁻¹	0.00303 ± 0.001 s⁻¹	0.00343 ± 0.00072 s⁻¹		0.000125 ± 4.4e-05 s⁻¹
U57G C70U	7.01e-05 ± 1.4e-05 s⁻¹		5.96e-05 ± 1.8e-05 s⁻¹	4.91e-05 ± 8.8e-06 s⁻¹	8.12e-05 ± 1.3e-05 s⁻¹		
U57G C70A	4.31e-05 ± 1.5e-05 s⁻¹		4.1e-05 ± 1.7e-05 s⁻¹	6.82e-05 ± 1.9e-05 s⁻¹			3.33e-05 ± 1.3e-05 s⁻¹
U57A C61G G62C A64G U65A G66U C67G U69C	3.85e-05 ± 9.7e-06 s⁻¹			4.83e-05 ± 2e-05 s⁻¹			
U54C C68G	8.49e-05 ± 1.1e-05 s⁻¹		4.44e-05 ± 1e-05 s⁻¹	9.2e-05 ± 1.4e-05 s⁻¹	7.49e-05 ± 1e-05 s⁻¹		
U55G C58U	0.00011 ± 7.5e-06 s⁻¹			2.7e-05 ± 8.5e-06 s⁻¹	6.17e-05 ± 7.4e-06 s⁻¹	7880 ± 1100 µM	
